Publication PMC8123688
pKd: −log10 of the molar value.

Target: TSH receptor (TSHR) on human ML-1 cells (human (endogenous in ML-1)) (UniProt P16473)
Assay: radioligand binding; real-time kinetic binding assay with LigandTracer; 10^6 ML-1 cells seeded in a tilted Petri dish; 2 mL of 30 nM radiolabeled ligand in culture medium for 1 h, then medium without ligand to follow release; Kd from binding/release curve (GraphPad Prism)

Chain of TSH receptor (TSHR) on human ML-1 cells (human (endogenous in ML-1)) (P16473 21-764): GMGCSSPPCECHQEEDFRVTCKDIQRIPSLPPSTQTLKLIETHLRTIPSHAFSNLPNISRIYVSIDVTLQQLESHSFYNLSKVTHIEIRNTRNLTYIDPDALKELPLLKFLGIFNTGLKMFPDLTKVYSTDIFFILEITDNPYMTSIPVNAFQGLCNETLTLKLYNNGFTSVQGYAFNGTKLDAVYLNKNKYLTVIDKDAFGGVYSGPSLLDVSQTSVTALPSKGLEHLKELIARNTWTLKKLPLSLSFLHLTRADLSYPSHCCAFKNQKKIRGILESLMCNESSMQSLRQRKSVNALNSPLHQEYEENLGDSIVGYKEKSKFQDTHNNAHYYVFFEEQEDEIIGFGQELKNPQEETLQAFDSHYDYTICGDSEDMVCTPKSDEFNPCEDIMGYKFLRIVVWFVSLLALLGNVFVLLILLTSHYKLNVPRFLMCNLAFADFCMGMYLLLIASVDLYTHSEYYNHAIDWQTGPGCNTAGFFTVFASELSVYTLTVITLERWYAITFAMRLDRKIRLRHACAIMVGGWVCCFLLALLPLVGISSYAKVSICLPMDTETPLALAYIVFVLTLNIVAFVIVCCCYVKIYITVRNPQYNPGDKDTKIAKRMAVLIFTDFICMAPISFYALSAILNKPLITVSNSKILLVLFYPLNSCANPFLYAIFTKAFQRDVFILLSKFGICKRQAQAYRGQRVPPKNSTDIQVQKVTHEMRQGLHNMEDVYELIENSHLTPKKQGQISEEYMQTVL
Chain of 99mTc-HYNIC-TR1401, radiolabeled superagonist recombinant human TSH analogue TR1401 (P01215 25-116): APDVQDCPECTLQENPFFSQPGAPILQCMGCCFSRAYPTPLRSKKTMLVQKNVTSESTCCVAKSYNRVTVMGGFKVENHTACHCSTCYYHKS
Chain of 99mTc-HYNIC-TR1401, radiolabeled superagonist recombinant human TSH analogue TR1401 (P01222 21-132): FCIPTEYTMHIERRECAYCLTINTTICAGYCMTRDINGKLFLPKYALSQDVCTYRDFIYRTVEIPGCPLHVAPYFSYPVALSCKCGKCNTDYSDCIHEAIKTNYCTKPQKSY
Chain of 99mTc-HYNIC-TR1402, radiolabeled superagonist recombinant human TSH analogue TR1402 (P01215 25-116): as the sequence (P01215 25-116) above
Chain of 99mTc-HYNIC-TR1402, radiolabeled superagonist recombinant human TSH analogue TR1402 (P01222 21-132): as the sequence (P01222 21-132) above

pKd | Substance
9.30 | 99mTc-HYNIC-TR1402, radiolabeled superagonist recombinant human TSH analogue TR1402 (from UniProt P01215 25-116; P01222 21-132) (ligand)
8.57 | 99mTc-HYNIC-TR1401, radiolabeled superagonist recombinant human TSH analogue TR1401 (from UniProt P01215 25-116; P01222 21-132) (ligand)
